B1: PTPN9 (parent)
chain: TQHLPRECLPENLGGYVKIDLATW
B2: CFHR2 (parent)
chain: FVENGHSESSGQTHLEGDTVQIIC

In the supplement of paper PMC10567573 one finds protein stability index data, which are given here for 94 variants.
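Note: lentivirally expressed fusions sorted by FACS into six bins by GFP to DsRed ratio, PSI derived from sequencing read proportions per bin multiplied by bin number.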

Variants of B1 are the subject of the first data set. The data set is described as follows: protein stability index of a GFP-peptide fusion (GPS, HEK-293T) (PSI 1-6); higher = more stable. Particulars: c terminus: a fixed tail appended.
Regarding TQHLPAECLPENLGGYVKIDLATW, the protein stability index stood at 2.08. Same read-out and setting: with TQHLPQECLPENLGGYVKIDLATW the figure was 2.31; with TQHLPMECLPENLGGYVKIDLATW, 2.16; with TQRLPRECLPENLGGYVKIDLATW, 1.56.

For TQQLPRECLPENLGGYVKIDLATW, the protein stability index turned out to be 1.91. Same read-out and setting: with TQYLPRECLPENLGGYVKIDLATW the figure was 1.66. Same read-out and setting: the same measure for TQGLPRECLPENLGGYVKIDLATW: 2.1; for TQSLPRECLPENLGGYVKIDLATW: 2.15. In the case of TQILPRECLPENLGGYVKIDLATW, the protein stability index stood at 1.79.

TQALPRECLPENLGGYVKIDLATW: the protein stability index is 1.84. Still for that read-out and setting: with TQWLPRECLPENLGGYVKIDLATW the figure was 1.65; with TQLLPRECLPENLGGYVKIDLATW, 1.92. On the same count and under the same terms, the same measure for TQVLPRECLPENLGGYVKIDLATW: 1.64; for TQNLPRECLPENLGGYVKIDLATW: 2.03.

Take TQDLPRECLPENLGGYVKIDLATW: the protein stability index came to 2.86.

Turning to TQMLPRECLPENLGGYVKIDLATW, the protein stability index was determined as 1.92. On the same count and under the same terms, the same measure for TQPLPRECLPENLGGYVKIDLATW: 1.77. The same measure, in the same setting: the same measure for TQCLPRECLPENLGGYVKIDLATW: 1.91. Still for that read-out and setting: with TQTLPRECLPENLGGYVKIDLATW the figure was 2.45; with TQFLPRECLPENLGGYVKIDLATW, 2.35; with TQKLPRECLPENLGGYVKIDLATW, 2.03.

As to TQELPRECLPENLGGYVKIDLATW, the protein stability index worked out at 2.28.

In a further data set the parent is B2. The description is as above. Particulars: c terminus: a fixed tail appended.
As for FVENGHSESSGQTHLEGDTVQIDC, the protein stability index was 4.42.

Take FVENGHSESSGQTHLEGDTVQIMC: the protein stability index stood at 2.83. On the same count and under the same terms, the same measure for FVENGHSESSGQTHLEGDTVQITC: 3.88; for FVENGHSESSGQTHLEGDTVQIEC: 4.13.

As for FVENGHSESSGQTHLEGDTVQILC, the protein stability index came to 3.71. On the same count and under the same terms, with FVENGHSESSGQTHLEGDTVQIVC the figure was 3.22; with FVENGHSESSGQTHLEGDTVQIPC, 3.24.

With FVENGHSESSGQTHLEGDTVQIAC, the protein stability index worked out at 3.95. For the variant FVENGHSESSGQTHLEGDTVQIRC, the protein stability index was determined as 2.9. The same measure, in the same setting: with FVENGHSESSGQTHLEGDTVQIYC the figure was 2.11; with FVENGHSESSGQTHLEGDTVQICC, 2.73; with FVENGHSESSGQTHLEGDTVQIKC, 3.35. The same measure, in the same setting: with FVENGHSESSGQTHLEGDTVQIHC the figure was 3.47; with FVENGHSESSGQTHLEGDTVQIQC, 3.35; with FVENGHSESSGQTHLEGDTVQIGC, 3.52. The same measure, in the same setting: with FVENGHSESSGQTHLEGDTVQINC the figure was 3.77; with FVENGHSESSGQTHLEGDTVQISC, 3.21. Consider FVENGHSESSGQTHLEGDTVQIFC, for which the protein stability index was 2.1. On the same count and under the same terms, the same measure for FVENGHSESSGQTHLEGDTVQIWC: 2.35. With FVENGHSESSGQTHLEGDTVQEIC, the protein stability index worked out at 4.08. On the same count and under the same terms, with FVENGHSESSGQTHLEGDTVQHIC the figure was 3.58. FVENGHSESSGQTHLEGDTVQKIC: the protein stability index amounted to 3.74. Still for that read-out and setting: the same measure for FVENGHSESSGQTHLEGDTVQVIC: 3.02. Same read-out and setting: the same measure for FVENGHSESSGQTHLEGDTVQGIC: 3.85. Same read-out and setting: with FVENGHSESSGQTHLEGDTVQWIC the figure was 1.67; with FVENGHSESSGQTHLEGDTVQSIC, 4.26; with FVENGHSESSGQTHLEGDTVQYIC, 3.1. In the case of FVENGHSESSGQTHLEGDTVQAIC, the protein stability index came out at 3.56. On to FVENGHSESSGQTHLEGDTVQCIC, for which the protein stability index came to 3.17. Still for that read-out and setting: the same measure for FVENGHSESSGQTHLEGDTVQTIC: 3.87; for FVENGHSESSGQTHLEGDTVQLIC: 2.34. The same measure, in the same setting: with FVENGHSESSGQTHLEGDTVQMIC the figure was 2.63; with FVENGHSESSGQTHLEGDTVQPIC, 3.99. On the same count and under the same terms, the same measure for FVENGHSESSGQTHLEGDTVQQIC: 3.74; for FVENGHSESSGQTHLEGDTVQDIC: 4.25. On to FVENGHSESSGQTHLEGDTVQFIC, for which the protein stability index worked out at 3.03. The same measure, in the same setting: the same measure for FVENGHSESSGQTHLEGDTVQNIC: 3.49; for FVENGHSESSGQTHLEGDTVQRIC: 3.53; for FVENGHSESSGQTHLEGDTVMIIC: 1.92. In the case of FVENGHSESSGQTHLEGDTVGIIC, the protein stability index was 3.01. On the same count and under the same terms, with FVENGHSESSGQTHLEGDTVHIIC the figure was 2.24.

Consider FVENGHSESSGQTHLEGDTVYIIC, for which the protein stability index turned out to be 2.58. The same measure, in the same setting: the same measure for FVENGHSESSGQTHLEGDTVSIIC: 2.91. Still for that read-out and setting: the same measure for FVENGHSESSGQTHLEGDTVVIIC: 1.85; for FVENGHSESSGQTHLEGDTVIIIC: 1.82; for FVENGHSESSGQTHLEGDTVRIIC: 2.9. As to FVENGHSESSGQTHLEGDTVKIIC, the protein stability index amounted to 2.83. For FVENGHSESSGQTHLEGDTVFIIC, the protein stability index came out at 1.91. Still for that read-out and setting: the same measure for FVENGHSESSGQTHLEGDTVNIIC: 3.29. On the same count and under the same terms, with FVENGHSESSGQTHLEGDTVTIIC the figure was 2.79.

For FVENGHSESSGQTHLEGDTVEIIC, the protein stability index came to 3.15. Same read-out and setting: with FVENGHSESSGQTHLEGDTVLIIC the figure was 1.17. Consider FVENGHSESSGQTHLEGDTVPIIC, for which the protein stability index amounted to 3.04. As for FVENGHSESSGQTHLEGDTVQIIY, the protein stability index turned out to be 2.08. As for FVENGHSESSGQTHLEGDTVQIID, the protein stability index was 4.46. Same read-out and setting: the same measure for FVENGHSESSGQTHLEGDTVQIIF: 1.88. The same measure, in the same setting: the same measure for FVENGHSESSGQTHLEGDTVQIIP: 3.87; for FVENGHSESSGQTHLEGDTVQIIR: 3.57. The same measure, in the same setting: the same measure for FVENGHSESSGQTHLEGDTVQIIV: 1.95. Consider FVENGHSESSGQTHLEGDTVQIIW, for which the protein stability index turned out to be 3.05. On the same count and under the same terms, the same measure for FVENGHSESSGQTHLEGDTVQIIL: 2.38. Still for that read-out and setting: the same measure for FVENGHSESSGQTHLEGDTVQIIN: 3.42; for FVENGHSESSGQTHLEGDTVQIIS: 3.91; for FVENGHSESSGQTHLEGDTVQIIK: 3.29. For FVENGHSESSGQTHLEGDTVQIIA, the protein stability index amounted to 3.96. On the same count and under the same terms, with FVENGHSESSGQTHLEGDTVQIII the figure was 2.49; with FVENGHSESSGQTHLEGDTVQIIT, 3.61. Take FVENGHSESSGQTHLEGDTVQIIE: the protein stability index stood at 3.88.

In the case of FVENGHSESSGQTHLEGDTVQIIH, the protein stability index was 3.23. On the same count and under the same terms, with FVENGHSESSGQTHLEGDTVQIIM the figure was 2.28.

Take FVENGHSESSGQTHLEGDTVQIIQ: the protein stability index stood at 4.31. As to FVENGHSESSGQTHLEGDTVQIIG, the protein stability index stood at 3.8.
